Reference: the supplement of paper PMC12764529
± gives the half width of the 95% confidence interval.

Legend:
[1] = folding stability dG unfold from trypsin proteolysis; higher = more stable
Method: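 Folding stability of de novo designed mini-proteins (<80 aa, no Cys; designed by TrROS, TrMRF, ProteinMPNN and the joint model) was measured by cDNA display proteolysis with trypsin and chymotrypsin. Each protease was used at 11 concentrations in a threefold dilution series plus a no-protease condition. K50 was inferred by Bayesian fitting of sequencing counts, and dG unfold was derived against a sequence-predicted unfolded-state K50 (Tsuboyama et al. method). Sequences shown include variable-length N-terminal GS-type padding (SAGGSAGG...) inside a display construct carrying a PA tag. Rows were kept only if the AF2 dimer inter-PAE was >15, to exclude likely homo-oligomers.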

[2] = folding stability dG unfold (combined trypsin and chymotrypsin); higher = more stable
Method in brief: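 K50 was inferred by Bayesian fitting of sequencing counts obtained after protease digestion of designed mini-proteins. Unfolding free energy was derived by comparison with a sequence-predicted unfolded-state K50 and a shared folded-state K50, for each protease or both combined. The mini-proteins were under 80 residues, had no cysteine, were carried in a PA-tagged cDNA display construct, and were kept only if AlphaFold2 dimer inter-PAE exceeded 15.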

**Q.** Which results are given for “SAGGSAGGSAGGSMPVEILEVEEADPETGIRTYKLRDPVIGVESTIEGPLSPEEIEALLSAGGSAGGSAGGS [r4_228_JUSTAS]”?
**A.** folding stability dG unfold [1]: -0.808 ± 0.55 kcal/mol; folding stability dG unfold [2]: < -1 kcal/mol

**Q.** For “SAGGSASLDIVEELIEEEIKDSKGTKIKILKPIIYYPGKGLVLSNVTVYKPDGTKISTEKKIEPVGSAGGSA [r15_967_JUSTAS]”, which “folding stability dG unfold” value [1] is on record?
**A.** -0.635 ± 0.25 kcal/mol

**Q.** What about the “folding stability dG unfold” value [2] of the same sequence?
**A.** < -1 kcal/mol

**Q.** What does the source list for “SDLRNMPIEELAKRIAREHGIEDVKVEVSRTGDSLTIPIEIRDPEQGMKYKVMIMVDPPDDGRIGIGVERSA [r9_1042_TrROS]”?
**A.** folding stability dG unfold [1]: 0.275 ± 0.29 kcal/mol; folding stability dG unfold [2]: 0.0221 ± 0.42 kcal/mol

**Q.** With “SAGGANLKIDIERHPGNGNINATIKFDGEEITVPATLSDIEEIIDEIIRVKPVPYYEKDGKLKPHWASAGGS [r8_332_TrROS]” as the sequence, how does the “folding stability dG unfold” value [1] read?
**A.** -0.781 ± 0.19 kcal/mol

**Q.** And the “folding stability dG unfold” value [2]?
**A.** < -1 kcal/mol

**Q.** With “SAGGMNPDNFKPVRTYTLPFDGHKIEVEVWEPPNGNPLIPIQLEDDNGKPKGPQWIPPDQIDENGKILSAGG [r13_447_TrROS]” as the sequence, how does the “folding stability dG unfold” value [1] read?
**A.** 0.343 ± 0.091 kcal/mol

**Q.** And the “folding stability dG unfold” value [2]?
**A.** -0.213 ± 0.28 kcal/mol

**Q.** For “SAGGNYYPMEFRNPENNHEIRITVERDPPGMYRINIQIENPNGNQIPFPMTMPPDDFKPGDEFEIKIPSAGG [r13_959_TrROS]”, which “folding stability dG unfold” value [1] is on record?
**A.** 0.676 ± 0.16 kcal/mol

**Q.** And the “folding stability dG unfold” value [2]?
**A.** 0.213 ± 0.44 kcal/mol

**Q.** For “SAGGSAGGSAMTIQINNLPPEKIEEAADDHGIDTQRNEESDSYYIEMPPNDMDEIKEALGWSAGGSAGGSAG [r3_354_TrROS]”, which “folding stability dG unfold” value [1] is on record?
**A.** 0.725 ± 0.052 kcal/mol

**Q.** What about the “folding stability dG unfold” value [2] of the same sequence?
**A.** 0.222 ± 0.17 kcal/mol

**Q.** What does the source list for “SAGGSAGGAEITIELTEDGTLRITVDGKKLEIRLEPAPPPVEVKTERVLDPDTDELTTRTETVLSAGGSAGG [r6_34_TrROS_Hall]”?
**A.** folding stability dG unfold [1]: 0.203 ± 0.19 kcal/mol; folding stability dG unfold [2]: -0.548 ± 0.43 kcal/mol

**Q.** What does the source list for “SAGGETEVVETNASPAELAERVAEALAAGREVTVTLPDGTVLDAGPDLADLPADTPVRLEFTPAVAASAGGS [r16_31_JUSTAS]”?
**A.** folding stability dG unfold [1]: 0.841 ± 0.032 kcal/mol; folding stability dG unfold [2]: 0.257 ± 0.17 kcal/mol

**Q.** With “SAGGSAGGSAGGMKIVLKVPENNPEAEKEAKKLKEEPGLKEVEVEFIPKSLVPEEPVLLSAGGSAGGSAGGS [r10_1110_JUSTAS]” as the sequence, how does the “folding stability dG unfold” value [1] read?
**A.** -0.334 ± 0.28 kcal/mol

**Q.** What about the “folding stability dG unfold” value [2] of the same sequence?
**A.** < -1 kcal/mol

**Q.** With “SMRLVPVPVRSADGRASVDEIRAAIREALPEGLRVDFGEEFIERALREAERRYGGRLRPDDFPILVPVLGSA [r9_197_TrMRF]” as the sequence, how does the “folding stability dG unfold” value [1] read?
**A.** -0.209 ± 0.15 kcal/mol

**Q.** What about the “folding stability dG unfold” value [2] of the same sequence?
**A.** < -1 kcal/mol

**Q.** What does the source list for “SAGGSEKLLEEIKEKEFNIPPFIDPKTGKEYPGAKVKVKEAKKIKDTKKIKLIVETPEGKHEFILGSAGGSA [r2_314_TrMRF]”?
**A.** folding stability dG unfold [1]: 0.324 ± 0.22 kcal/mol; folding stability dG unfold [2]: < -1 kcal/mol

**Q.** Which “folding stability dG unfold” value [1] does the source give for “SAGGSAGGSAGREEVEEAIRAGETVTLEEKSPEGVIPVITVRAEFPDPDKVLVETEVKPLSAGGSAGGSAGG [r11_710_JUSTAS]” here?
**A.** 0.455 ± 0.083 kcal/mol

**Q.** What about the “folding stability dG unfold” value [2] of the same sequence?
**A.** -0.646 ± 0.32 kcal/mol

**Q.** Which results are given for “SAGGSAGGKKKFKVEKITEIKVEKLENGEEVIVKIRLKNGEEIEIPAKDIKLEDLPEGAEIEVISAGGSAGG [r6_609_TrROS_Hall]”?
**A.** folding stability dG unfold [1]: 0.123 ± 0.34 kcal/mol; folding stability dG unfold [2]: < -1 kcal/mol

**Q.** With “SAGGSAGGSAGGSGSSIPIVVEEKPEVSEDPSRVVLTTKIILKDPNGNSIETITEVELKSAGGSAGGSAGGS [r4_75_JUSTAS]” as the sequence, how does the “folding stability dG unfold” value [1] read?
**A.** -0.492 ± 0.066 kcal/mol

**Q.** What about the “folding stability dG unfold” value [2] of the same sequence?
**A.** < -1 kcal/mol

**Q.** What does the source list for “SAGGSAGGSAPKPKIEPVNNTITIDIPPKENVQIFFPNGKQEEFPVEPGKEIKIPPGMYLYPSAGGSAGGSA [r18_452_TrROS]”?
**A.** folding stability dG unfold [1]: -0.356 ± 0.055 kcal/mol; folding stability dG unfold [2]: < -1 kcal/mol

**Q.** Which “folding stability dG unfold” value [1] does the source give for “SPLTPEQIEELAKEIAQEFPNVKVKIYPNDEPIEIKAPGAEIEIWPPPGEFYIQIEFPGNGKPKQIPIPPSA [r9_1062_TrROS]” here?
**A.** 0.00765 ± 0.051 kcal/mol

**Q.** And the “folding stability dG unfold” value [2]?
**A.** -0.583 ± 0.25 kcal/mol

**Q.** Which “folding stability dG unfold” value [1] does the source give for “SYRPITIQMPSPEDLKKLEEAFEDDGFENVNIHRDPPGWHTITITQKGPPEQLQDRIREAFDENGFQIQPSA [r9_1003_TrROS]” here?
**A.** 0.0855 ± 0.11 kcal/mol

**Q.** What about the “folding stability dG unfold” value [2] of the same sequence?
**A.** < -1 kcal/mol

**Q.** For “SAGGSAGGSAGGMLVLIKTPKKPVLLSEEEVKSNPELLEKLKEEGFPIDGIEFLDKEKLSAGGSAGGSAGGS [r10_396_JUSTAS]”, which “folding stability dG unfold” value [1] is on record?
**A.** -0.185 ± 0.1 kcal/mol

**Q.** What about the “folding stability dG unfold” value [2] of the same sequence?
**A.** -0.451 ± 0.31 kcal/mol

**Q.** Which “folding stability dG unfold” value [1] does the source give for “SAGGSAMPPEWQREVVLTPVEIDIPEPPEVEVVEYDPSTGTITISVPKSPLTLTYDALTGTVHTIGSAGGSA [r15_452_JUSTAS]” here?
**A.** -0.488 ± 0.61 kcal/mol

**Q.** And the “folding stability dG unfold” value [2]?
**A.** -0.873 ± 0.47 kcal/mol
